Measured values from the supplement of paper PMC11246515.
± gives the standard deviation of the averaged measurements.

Assay: total protein half-life in vivo (active degradation + dilution); higher = more stable protein
[1] = E. coli NCM3722 delta-clpP delta-lon delta-hslV, growth: N-lim chemostat, doubling time 6 h
[2] = E. coli NCM3722 delta-clpP, growth: N-lim chemostat, doubling time 6 h
[3] = E. coli NCM3722 delta-hslV, growth: N-lim chemostat, doubling time 6 h
[4] = E. coli NCM3722 delta-lon, growth: N-lim chemostat, doubling time 6 h
[5] = E. coli NCM3722 delta-smpB, growth: N-lim chemostat, doubling time 6 h
[6] = wild type E. coli NCM3722, growth: C-lim chemostat, doubling time 3 h
[7] = wild type E. coli NCM3722, growth: C-lim chemostat, doubling time 6 h
[8] = wild type E. coli NCM3722, growth: C-lim chemostat, doubling time 12 h
[9] = wild type E. coli NCM3722, growth: N-lim chemostat, doubling time 6 h
[10] = wild type E. coli NCM3722, growth: N-lim chemostat, doubling time 12 h
[11] = wild type E. coli NCM3722, growth: P-lim chemostat, doubling time 6 h
[12] = wild type E. coli NCM3722, growth: P-lim chemostat, doubling time 12 h

Row | Sequence | total protein half-life in vivo [1] [h] | total protein half-life in vivo [2] [h] | total protein half-life in vivo [3] [h] | total protein half-life in vivo [4] [h] | total protein half-life in vivo [5] [h] | total protein half-life in vivo [6] [h] | total protein half-life in vivo [7] [h] | total protein half-life in vivo [8] [h] | total protein half-life in vivo [9] [h] | total protein half-life in vivo [10] [h] | total protein half-life in vivo [11] [h] | total protein half-life in vivo [12] [h]
1 | MQQLQNIIETAFERRAEITPANADTVTREAVNQVIALLDSGALRVAEKIDGQWVTHQWLKKAVLLSFRINDNQVIEGAESRYFDKVPMKFADYDEARFQKEGFRVVPPAAVRQGAFIARNTVLMPSYVNIGAYVDEGTMVDTWATVGSCAQIGKNVHLSGGVGIGGVLEPLQANPTIIEDNCFIGARSEVVEGVIVEEGSVISMGVYIGQSTRIYDRETGEIHYGRVPAGSVVVSGNLPSKDGKYSLYCAVIVKKVDAKTRGKVGINELLRTID [P0A9D8] | 4.878 ± 0.043 | 4.24 ± 0.13 | 4.13 ± 0.23 | 4.507 ± 0.042 | 4.12 ± 0.12 | 2.97 ± 0.074 | 5.34 ± 0.39 | 9.591 ± 0.062 | 4.19 ± 0.11 | 6.89 ± 0.2 | 5.91 ± 0.12 | 11 ± 0.57
2 | MQRKTLLSACIALALSGQGWAADITEVETTTGEKKNTNVTCPADPGKLSPEELKRLPSECSPLVEQNLMPWLSTGAAALITALAVVELNDDDDHHHRNNSPLPPTPPDDESDDTPVPPTPGGDEIIPDDPDDTPTPPKPVSFNNDVILDKTEKTLTIRDSVFTYTENADGTISLQDSNGRKATINLWQIDEANNTVALEGVSADGATKWQYNHNGELVITGDNATVNNNGKTTVDGKDSTGTEINGNNGKVIQDGDLDVSGGGHGIDITGDSATVDNKGTMTVTDPESMGIQIDGDKAIVNNEGESTITNGGTGTQINGDDATANNNGKTTVDGKDSTGTEINGNNGKVIQDGDLDVSGGGHGIDITGDSATVDNKGTMTVTDPESIGIQVDGDQAVVNNEGESAITNGGTGTQINGDDATANNNGKTTVDGKDSTGTEIAGNNGKVIQDGDLDVSGGGHGIDITGDSATVDNKGTMTVTDPESIGIQIDGDQAIVNNEGESTITNGGTGTQINGNDATANNSGKTTVDGKDSTGTKIAGNIGIVNLDGSLTVTGGAHGVENIGDNGTVNNKGDIVVSDTGSIGVLINGEGATVSNTGDVNVSNEATGFSITTNSGKVSLAGSMQVGDFSTGVDLNGNNNSVTLAAKDLKVVGQKATGINVSGDANTVNITGNVLVDKDKTADNAAEYFFDPSVGINVYGSDNNVTLDGKLTVVSDSEVTSRQSNLFDGSAEKTSGLVVIGDGNTVNMNGGLELIGEKNALADGSQVTSLRTGYSYTSVIVVSGESSVYLNGDTTISGEFPLGFAGVIRVQDKALLEIGSGATLTMQDIDSFEHHGTRTLDLPLYFQTSVIT | – | – | – | – | – | – | – | – | – | – | – | 11 ± 1.1
3 | MQRRDFLKYSVALGVASALPLWSRAVFAAERPTLPIPDLLTTDARNRIQLTIGAGQSTFGGKTATTWGYNGNLLGPAVKLQRGKAVTVDIYNQLTEETTLHWHGLEVPGEVDGGPQGIIPPGGKRSVTLNVDQPAATCWFHPHQHGKTGRQVAMGLAGLVVIEDDEILKLMLPKQWGIDDVPVIVQDKKFSADGQIDYQLDVMTAAVGWFGDTLLTNGAIYPQHAAPRGWLRLRLLNGCNARSLNFATSDNRPLYVIASDGGLLPEPVKVSELPVLMGERFEVLVEVNDNKPFDLVTLPVSQMGMAIAPFDKPHPVMRIQPIAISASGALPDTLSSLPALPSLEGLTVRKLQLSMDPMLDMMGMQMLMEKYGDQAMAGMDHSQMMGHMGHGNMNHMNHGGKFDFHHANKINGQAFDMNKPMFAAAKGQYERWVISGVGDMMLHPFHIHGTQFRILSENGKPPAAHRAGWKDTVKVEGNVSEVLVKFNHDAPKEHAYMAHCHLLEHEDTGMMLGFTV | – | 5.63 ± 0.14 | 6.68 ± 0.32 | 6.57 ± 0.91 | 5.62 ± 0.1 | 2.84 ± 0.38 | 5.977 ± 0.041 | 11.2 ± 1.3 | 5.944 ± 0.022 | 13.8 ± 1 | 5.657 ± 0.043 | 14.4 ± 1.6
4 | MQSDKVLNLPAGYFGIVLGTIGMGFAWRYASQVWQVSHWLGDGLVILAMIIWGLLTSAFIARLIRFPHSVLAEVRHPVLSSFVSLFPATTMLVAIGFVPWFRPLAVCLFSFGVVVQLAYAAWQTAGLWRGSHPEEATTPGLYLPTVANNFISAMACGALGYTDAGLVFLGAGVFSWLSLEPVILQRLRSSGELPTALRTSLGIQLAPALVACSAWLSVNGGEGDTLAKMLFGYGLLQLLFMLRLMPWYLSQPFNASFWSFSFGVSALATTGLHLGSGSDNGFFHTLAVPLFIFTNFIIAILLIRTFALLMQGKLLVRTERAVLMKAEDKE | – | – | – | – | 6.2 | – | > 8 | – | – | – | 6.53 | –
5 | MQSLHGNCLIAYARHKYILTMVNGEYRYFNGGDLVFADASQIRVDKCVENFVFVSRDTLSLFLPMLKEEALNLHAHKKVSSLLVHHCSRDIPVFQEVAQLSQNKNLRYAEMLRKRALIFALLSVFLEDEHFIPLLLNVLQPNMRTRVCTVINNNIAHEWTLARIASELLMSPSLLKKKLREEETSYSQLLTECRMQRALQLIVIHGFSIKRVAVSCGYHSVSYFIYVFRNYYGMTPTEYQERSAQRLSNRDSAASIVAQGNFYGTDRSAEGIRL | 6.49 ± 1 | 1.14 | – | – | – | – | – | – | – | – | – | –
6 | MQSVTPTSQYLKALNEGSHQPDDVQKEAVSRLEIIYQELINSTPPAPRTSGLMARVGKLWGKREDTKHTPVRGLYMWGGVGRGKTWLMDLFYQSLPGERKQRLHFHRFMLRVHEELTALQGQTDPLEIIADRFKAETDVLCFDEFFVSDITDAMLLGGLMKALFARGITLVATSNIPPDELYRNGLQRARFLPAIDAIKQHCDVMNVDAGVDYRLRTLTQAHLWLSPLHDETRAQMDKLWLALAGGKRENSPTLEINHRPLATMGVENQTLAVSFTTLCVDARSQHDYIALSRLFHTVMLFDVPVMTRLMESEARRFIALVDEFYERHVKLVVSAEVPLYEIYQGDRLKFEFQRCLSRLQEMQSEEYLKREHLAG | 3.66 ± 0.54 | 2.97 ± 0.16 | 3.35 ± 0.15 | 2.58 | 3.103 ± 0.03 | 2.72 ± 0.05 | 5.71 ± 0.58 | 9.73 ± 1.3 | 3.4 ± 0.15 | 5.55 ± 0.15 | 5.25 ± 0.66 | 9.34 ± 1.1
7 | MQTFQADLAIVGAGGAGLRAAIAAAQANPNAKIALISKVYPMRSHTVAAEGGSAAVAQDHDSFEYHFHDTVAGGDWLCEQDVVDYFVHHCPTEMTQLELWGCPWSRRPDGSVNVRRFGGMKIERTWFAADKTGFHMLHTLFQTSLQFPQIQRFDEHFVLDILVDDGHVRGLVAMNMMEGTLVQIRANAVVMATGGAGRVYRYNTNGGIVTGDGMGMALSHGVPLRDMEFVQYHPTGLPGSGILMTEGCRGEGGILVNKNGYRYLQDYGMGPETPLGEPKNKYMELGPRDKVSQAFWHEWRKGNTISTPRGDVVYLDLRHLGEKKLHERLPFICELAKAYVGVDPVKEPIPVRPTAHYTMGGIETDQNCETRIKGLFAVGECSSVGLHGANRLGSNSLAELVVFGRLAGEQATERAATAGNGNEAAIEAQAAGVEQRLKDLVNQDGGENWAKIRDEMGLAMEEGCGIYRTPELMQKTIDKLAELQERFKRVRITDTSSVFNTDLLYTIELGHGLNVAECMAHSAMARKESRGAHQRLDEGCTERDDVNFLKHTLAFRDADGTTRLEYSDVKITTLPPAKRVYGGEADAADKAEAANKKEKANG | 5.99 ± 0.19 | 5.68 ± 0.083 | 6.59 ± 0.5 | 6.24 ± 0.66 | 5.45 ± 0.11 | 2.97 ± 0.033 | 6.38 ± 0.42 | 12.1 ± 1.9 | 6.2 ± 0.28 | 11.3 ± 1.7 | 6.03 ± 0.064 | 13.4 ± 0.38
8 | MQTQIKVRGYHLDVYQHVNNARYLEFLEEARWDGLENSDSFQWMTAHNIAFVVVNININYRRPAVLSDLLTITSQLQQLNGKSGILSQVITLEPEGQVVADALITFVCIDLKTQKALALEGELREKLEQMVK | 4.69 ± 0.88 | 3.29 ± 0.61 | 3.46 ± 0.25 | – | 3.35 ± 0.049 | 3.22 ± 0.17 | 5.29 ± 0.48 | 7.87 ± 0.63 | 3.29 ± 0.11 | 4.77 ± 0.72 | 5.365 ± 0.043 | 9.67 ± 0.54
